Laboratory results from publication PMC3794980.

Legend:
Assay in all cases: radioligand binding
[1] = molecular target: HLA-DR DRB1*0701 (human (endogenous in EBV transformed cell lines))
[2] = molecular target: HLA-DR DRB5*0101 (human (endogenous in EBV transformed cell lines))
[3] = molecular target: HLA-DR DRB1*0101 (human (endogenous in EBV transformed cell lines))
[4] = molecular target: HLA-DR DRB1*0405 (human (endogenous in EBV transformed cell lines))
[5] = molecular target: HLA-DR DRB1*0802 (human (endogenous in EBV transformed cell lines))
[6] = molecular target: HLA-DR DRB1*1501 (human (endogenous in EBV transformed cell lines))
[7] = molecular target: HLA-DR DRB4*0101 (human (endogenous in EBV transformed cell lines))
[8] = molecular target: HLA-DR DRB3*0101 (human (endogenous in EBV transformed cell lines))
[9] = molecular target: HLA-DR DRB1*1101 (human (endogenous in EBV transformed cell lines))
[10] = molecular target: HLA-DR DRB1*0301 (human (endogenous in EBV transformed cell lines))
[11] = molecular target: HLA-DR DRB1*0401 (human (endogenous in EBV transformed cell lines))
[12] = molecular target: HLA-DR DRB1*1302 (human (endogenous in EBV transformed cell lines))
[13] = molecular target: HLA-DR DRB1*0901 (human (endogenous in EBV transformed cell lines))

Substance: DENV3 NS3 241-255 (peptide)
- IC50 [1]: 0.525 µM
- IC50 [2]: 0.0167 µM

Substance: DENV3 Envelope 126-140 (peptide)
- IC50 [3]: 0.98 µM
- IC50 [4]: 0.0897 µM
- IC50 [5]: 0.0371 µM
- IC50 [6]: 0.0215 µM
- IC50 [7]: 0.0591 µM

Substance: DENV3 NS3 137-151 (peptide)
- IC50 [3]: 0.843 µM
- IC50 [6]: 0.502 µM

Substance: DENV3 NS1 133-147 (peptide)
- IC50 [8]: 0.0623 µM

Substance: DENV3 NS5 658-674 (peptide)
- IC50 [5]: 0.453 µM

Substance: DENV3 NS5 570-586 (peptide)
- IC50 [2]: 0.0278 µM

Substance: DENV3 NS5 301-316 (peptide)
- IC50 [8]: 0.536 µM

Substance: DENV3 Envelope 316-330 (peptide)
- IC50 [9]: 0.153 µM
- IC50 [6]: 0.361 µM

Substance: DENV3 NS3 429-443 (peptide)
- IC50 [8]: 0.00572 µM

Substance: DENV3 NS5 284-300 (peptide)
- IC50 [10]: 0.00934 µM
- IC50 [11]: 0.306 µM
- IC50 [8]: 0.0171 µM

Substance: DENV3 NS5 642-658 (peptide)
- IC50 [3]: 0.166 µM
- IC50 [10]: 0.775 µM
- IC50 [9]: 0.665 µM
- IC50 [6]: 0.0594 µM
- IC50 [2]: 0.00507 µM

Substance: DENV3 NS5 558-574 (peptide)
- IC50 [10]: 0.586 µM
- IC50 [4]: 0.667 µM
- IC50 [1]: 0.134 µM
- IC50 [9]: 0.173 µM
- IC50 [6]: 0.401 µM
- IC50 [2]: 0.391 µM

Substance: DENV3 NS5 295-311 (peptide)
- IC50 [8]: 0.98 µM

Substance: DENV3 NS3 185-199 (peptide)
- IC50 [10]: 0.87 µM
- IC50 [11]: 0.171 µM
- IC50 [4]: 0.972 µM
- IC50 [5]: 0.021 µM
- IC50 [9]: 0.0718 µM
- IC50 [7]: 0.00764 µM

Substance: DENV3 NS3 349-363 (peptide)
- IC50 [6]: 0.608 µM
- IC50 [8]: 0.221 µM

Substance: DENV3 NS1 225-239 (peptide)
- IC50 [11]: 0.322 µM
- IC50 [12]: 0.0589 µM

Substance: DENV3 NS1 121-135 (peptide)
- IC50 [3]: 0.355 µM
- IC50 [5]: 0.0455 µM
- IC50 [7]: 0.382 µM

Substance: DENV3 NS3 381-395 (peptide)
- IC50 [8]: 0.399 µM

Substance: DENV3 NS1 269-283 (peptide)
- IC50 [8]: 0.0713 µM

Substance: DENV3 NS5 501-517 (peptide)
- IC50 [3]: 0.00698 µM
- IC50 [11]: 0.0736 µM
- IC50 [1]: 0.0175 µM
- IC50 [5]: 0.836 µM
- IC50 [13]: 0.351 µM

Substance: DENV3 NS3 69-83 (peptide)
- IC50 [6]: 0.0295 µM

Substance: DENV3 Envelope 231-245 (peptide)
- IC50 [3]: 0.00511 µM
- IC50 [13]: 0.0484 µM
- IC50 [6]: 0.00525 µM
- IC50 [2]: 0.0246 µM

Substance: DENV3 NS5 582-598 (peptide)
- IC50 [9]: 0.106 µM

Substance: DENV3 NS1 29-43 (peptide)
- IC50 [8]: 0.0106 µM
- IC50 [2]: 0.0228 µM

Substance: DENV3 NS3 113-127 (peptide)
- IC50 [3]: 0.226 µM
- IC50 [11]: 0.0179 µM

Substance: DENV3 NS3 73-87 (peptide)
- IC50 [2]: 0.0707 µM

Substance: DENV3 NS5 29-45 (peptide)
- IC50 [9]: 0.289 µM

Substance: DENV3 NS3 409-423 (peptide)
- IC50 [10]: 0.47 µM
- IC50 [8]: 0.168 µM
- IC50 [2]: 0.0503 µM

Substance: DENV3 NS3 77-91 (peptide)
- IC50 [13]: 0.268 µM
- IC50 [6]: 0.0521 µM
- IC50 [7]: 0.708 µM

Substance: DENV3 Envelope 306-320 (peptide)
- IC50 [11]: 0.53 µM

Substance: DENV3 NS1 229-243 (peptide)
- IC50 [10]: 0.17 µM
- IC50 [11]: 0.178 µM
- IC50 [8]: 0.733 µM

Substance: DENV3 NS1 297-311 (peptide)
- IC50 [3]: 0.228 µM
- IC50 [11]: 0.484 µM
- IC50 [1]: 0.262 µM
- IC50 [5]: 0.561 µM
- IC50 [6]: 0.736 µM

Substance: DENV3 NS3 109-123 (peptide)
- IC50 [3]: 0.148 µM
- IC50 [5]: 0.557 µM

Substance: DENV3 NS3 125-139 (peptide)
- IC50 [10]: 0.0472 µM

Substance: DENV3 NS5 780-795 (peptide)
- IC50 [7]: 0.168 µM

Substance: DENV3 Envelope 251-265 (peptide)
- IC50 [3]: 0.588 µM
- IC50 [2]: 0.722 µM

Substance: DENV3 NS5 193-209 (peptide)
- IC50 [3]: 0.0875 µM
- IC50 [1]: 0.144 µM
- IC50 [12]: 0.0151 µM
- IC50 [6]: 0.199 µM

Substance: DENV3 NS1 261-275 (peptide)
- IC50 [7]: 0.666 µM

Substance: DENV3 NS5 306-322 (peptide)
- IC50 [5]: 0.0702 µM

Substance: DENV3 Envelope 376-390 (peptide)
- IC50 [3]: 0.476 µM
- IC50 [5]: 0.0846 µM
- IC50 [6]: 0.448 µM
- IC50 [8]: 0.0153 µM

Substance: DENV3 NS5 636-652 (peptide)
- IC50 [1]: 0.352 µM
- IC50 [6]: 0.453 µM

Substance: DENV3 NS1 33-47 (peptide)
- IC50 [8]: 0.0224 µM
- IC50 [7]: 0.916 µM

Substance: DENV3 NS3 605-619 (peptide)
- IC50 [5]: 0.0368 µM
- IC50 [6]: 0.0281 µM
- IC50 [2]: 0.0196 µM

Substance: DENV3 Envelope 366-380 (peptide)
- IC50 [1]: 0.552 µM
- IC50 [5]: 0.762 µM

Substance: DENV3 Envelope 346-360 (peptide)
- IC50 [3]: 0.0045 µM
- IC50 [11]: 0.343 µM
- IC50 [1]: 0.0676 µM
- IC50 [5]: 0.288 µM
- IC50 [12]: 0.0145 µM
- IC50 [6]: 0.332 µM

Substance: DENV3 NS3 181-195 (peptide)
- IC50 [6]: 0.891 µM
- IC50 [7]: 0.0678 µM

Substance: DENV3 NS5 838-854 (peptide)
- IC50 [13]: 0.68 µM
- IC50 [8]: 0.0792 µM
